The supplement of paper PMC10567573

B1: ZNF649 (parent)
chain: DECEKAYFYMSCLVKHKRIHSREK

Variants of: B1
Test: protein stability index of a GFP-peptide fusion (GPS, HEK-293T) (PSI 1-6); higher = more stable
Details: c terminus: a fixed tail appended
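Further: lentivirally expressed fusions sorted by FACS into six bins by GFP to DsRed ratio, PSI derived from sequencing read proportions per bin multiplied by bin number.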

Variant	protein stability index
DECEKAYFYMSCTVKHKRIHSREK [L13T]	2.81
DECEKAYFYMSCQVKHKRIHSREK [L13Q]	2.99
DECEKAYFYMSCAVKHKRIHSREK [L13A]	3.07
DECEKAYFYMSCPVKHKRIHSREK [L13P]	3.1
DECEKAYFYMSCSVKHKRIHSREK [L13S]	2.79
DECEKAYFYMSCGVKHKRIHSREK [L13G]	3.24
DECEKAYFYMSCHVKHKRIHSREK [L13H]	2.95
DECEKAYFYMSCWVKHKRIHSREK [L13W]	3.19
DECEKAYFYMSCIVKHKRIHSREK [L13I]	2.29
DECEKAYFYMSCMVKHKRIHSREK [L13M]	3.25
DECEKAYFYMSCFVKHKRIHSREK [L13F]	3.18
DECEKAYFYMSCNVKHKRIHSREK [L13N]	3.65
DECEKAYFYMSCYVKHKRIHSREK [L13Y]	2.21
DECEKAYFYMSCDVKHKRIHSREK [L13D]	4.25
DECEKAYFYMSCCVKHKRIHSREK [L13C]	3.27
DECEKAYFYMSCEVKHKRIHSREK [L13E]	3.61
DECEKAYFYMSCVVKHKRIHSREK [L13V]	2.98
DECEKAYFYMSCRVKHKRIHSREK [L13R]	2.15
DECEKAYFYMSCKVKHKRIHSREK [L13K]	2.68
DECEKAQFYMSCLVKHKRIHSREK [Y7Q]	3.99
DECEKALFYMSCLVKHKRIHSREK [Y7L]	2.26
DECEKAWFYMSCLVKHKRIHSREK [Y7W]	2.25
DECEKAPFYMSCLVKHKRIHSREK [Y7P]	3.54
DECEKAEFYMSCLVKHKRIHSREK [Y7E]	3.7

Variant	protein stability index
DECEKANFYMSCLVKHKRIHSREK [Y7N]	3.61
DECEKASFYMSCLVKHKRIHSREK [Y7S]	3.3
DECEKACFYMSCLVKHKRIHSREK [Y7C]	3.25
DECEKATFYMSCLVKHKRIHSREK [Y7T]	3
DECEKAVFYMSCLVKHKRIHSREK [Y7V]	2.68
DECEKAKFYMSCLVKHKRIHSREK [Y7K]	3.57
DECEKAMFYMSCLVKHKRIHSREK [Y7M]	2.19
DECEKAIFYMSCLVKHKRIHSREK [Y7I]	2.23
DECEKADFYMSCLVKHKRIHSREK [Y7D]	4.07
DECEKAFFYMSCLVKHKRIHSREK [Y7F]	2.88
DECEKAGFYMSCLVKHKRIHSREK [Y7G]	3.38
DECEKARFYMSCLVKHKRIHSREK [Y7R]	3.55
DECEKAAFYMSCLVKHKRIHSREK [Y7A]	3.53
DECEKAHFYMSCLVKHKRIHSREK [Y7H]	3.35
DECEKAYFYMSVLVKHKRIHSREK [C12V]	2.42
DECEKAYFYMSKLVKHKRIHSREK [C12K]	2.8
DECEKAYFYMSMLVKHKRIHSREK [C12M]	2.95
DECEKAYFYMSSLVKHKRIHSREK [C12S]	3.68
DECEKAYFYMSPLVKHKRIHSREK [C12P]	3.05
DECEKAYFYMSELVKHKRIHSREK [C12E]	3.54
DECEKAYFYMSLLVKHKRIHSREK [C12L]	2.23
DECEKAYFYMSALVKHKRIHSREK [C12A]	2.83
DECEKAYFYMSDLVKHKRIHSREK [C12D]	4.16
DECEKAYFYMSRLVKHKRIHSREK [C12R]	2.96

Variant	protein stability index
DECEKAYFYMSTLVKHKRIHSREK [C12T]	3.83
DECEKAYFYMSYLVKHKRIHSREK [C12Y]	2.43
DECEKAYFYMSHLVKHKRIHSREK [C12H]	3.12
DECEKAYFYMSGLVKHKRIHSREK [C12G]	3.33
DECEKAYFYMSWLVKHKRIHSREK [C12W]	2.33
DECEKAYFYMSILVKHKRIHSREK [C12I]	1.64
DECEKAYFYMSQLVKHKRIHSREK [C12Q]	3.09
DECEKAYFYMSNLVKHKRIHSREK [C12N]	3.38
DECEKAYFYMSFLVKHKRIHSREK [C12F]	2.69
DECEKAYFYESCLVKHKRIHSREK [M10E]	3.92
DECEKAYFYVSCLVKHKRIHSREK [M10V]	2.38
DECEKAYFYTSCLVKHKRIHSREK [M10T]	3.19
DECEKAYFYWSCLVKHKRIHSREK [M10W]	2.36
DECEKAYFYISCLVKHKRIHSREK [M10I]	1.86
DECEKAYFYPSCLVKHKRIHSREK [M10P]	3.16
DECEKAYFYRSCLVKHKRIHSREK [M10R]	3.32
DECEKAYFYKSCLVKHKRIHSREK [M10K]	3.74
DECEKAYFYDSCLVKHKRIHSREK [M10D]	3.97
DECEKAYFYNSCLVKHKRIHSREK [M10N]	4.14
DECEKAYFYFSCLVKHKRIHSREK [M10F]	2.33
DECEKAYFYASCLVKHKRIHSREK [M10A]	3.61
DECEKAYFYGSCLVKHKRIHSREK [M10G]	2.56
DECEKAYFYQSCLVKHKRIHSREK [M10Q]	4.12
DECEKAYFYCSCLVKHKRIHSREK [M10C]	2.75

Variant	protein stability index
DECEKAYFYLSCLVKHKRIHSREK [M10L]	2.19
DECEKAYFYHSCLVKHKRIHSREK [M10H]	3.47
DECEKAYFYSSCLVKHKRIHSREK [M10S]	3.19
DECEKAYFYYSCLVKHKRIHSREK [M10Y]	3.11
DECEKPYFYMSCLVKHKRIHSREK [A6P]	2.79
DECEKRYFYMSCLVKHKRIHSREK [A6R]	2.35
DECEKVYFYMSCLVKHKRIHSREK [A6V]	1.96
DECEKMYFYMSCLVKHKRIHSREK [A6M]	1.9
DECEKGYFYMSCLVKHKRIHSREK [A6G]	2.75
DECEKQYFYMSCLVKHKRIHSREK [A6Q]	3.02
DECEKLYFYMSCLVKHKRIHSREK [A6L]	2.08
DECEKDYFYMSCLVKHKRIHSREK [A6D]	3.52
DECEKFYFYMSCLVKHKRIHSREK [A6F]	1.64
DECEKSYFYMSCLVKHKRIHSREK [A6S]	3.04
DECEKHYFYMSCLVKHKRIHSREK [A6H]	2.58
DECEKWYFYMSCLVKHKRIHSREK [A6W]	2.03
DECEKNYFYMSCLVKHKRIHSREK [A6N]	2.65
DECEKIYFYMSCLVKHKRIHSREK [A6I]	1.89
DECEKEYFYMSCLVKHKRIHSREK [A6E]	3.01
DECEKTYFYMSCLVKHKRIHSREK [A6T]	2.55
DECEKKYFYMSCLVKHKRIHSREK [A6K]	2.56
DECEKCYFYMSCLVKHKRIHSREK [A6C]	2.08
